Assay: soluble fraction after stress (log2 fold change); higher = more stays soluble; pooled small domains, quantitative proteomics
Details: stress: 75 degC
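Further: 20 min heating vs room temperature control held 20 min.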

Row | Sequence | soluble fraction (log2)
1 | HMWTPLVVAVLIGGTHRFGELRAAVGGITPKVLTETLRSMERDGLVVREQTPGVPPRVDYALTPLGA | -0.493
2 | HMEVPVQYIKFKIPENHFWAKKKVADIILPPETLLVLLQRGSDKMIPDGETVLLPEDTLVLIAKAPG | -0.479
3 | HMPFDRTVQLAGARARQLQALPRYREVLRLLDEGMNPREIGQVLDPPVTRQRASALIQQAKRAQMLGLFED | -1.04
4 | HMSTMKSKWFVSSNPIAGVMKYQAQRKKDVNAVDSSENREASGQWYTDKEEAQAIVDKLNAEEQIKEAGK | -0.0426
5 | HMIKRDLAFSEFIAEVKAGQVREVTIKGNSISGNLNDGREFNTYAPNDPNLVKTLTDQGVLIRAIPLE | 0.0691
6 | HMKKYLTETEAAAYLNMPVEEIKAAITKGEIEQYVKTSSGYTISVEELDKFFGQKAYDTMTSNNS | 0.0786
7 | HMIMPSDATEAKLLGVLGNEPLHVDEIRNQAELPIEKVSAALALMELKGMVRQVGGMNYVAVR | -0.0915
8 | HMGEMTDFETLRDMYLTGQIWNIDDLIEANGVEGRIVRRGTNYIAFNDRDGKVHKAWLHEVTINE | -0.434
9 | HMVDPAEASKRAREYLDALPADDLKDVIRQFSATLAEGSVVLGYFQRSGLKSKVVKTALEQFVASTILSK | -1.16
10 | HMEMKHKNSQIFQAIKLKHMGFTPTQISEELRVSRTTINHWLTKAQLKDVKWEDIRENSADELVKLLFG | -1.33
11 | HMGVPVTAPMPGKVLKVTVSVGAAVKNGDLVLVLEAMKMENEIFATANGVVKEIRSREGDTVNSGDVMMVI | -2.19
12 | HMQEDSNISFVKIHVDADSGMAHKKLSKLSLPTGFLIVVIIRGEENIIPNGETEVLPGDLLVAAAREFEN | -1.31
13 | HMMEERVIEFANVLRRNGVRVSLAENMDAFRALKSLGISDPLLFRHALRATLIKRGSDIQPFEELFDFFFL | -1.42
14 | HMDSILSIVGGEESYKALLAWAENNISQQELQQLETILKSGNVPAIKRVLVTLMNRFNQAQS | -0.114
15 | HMREIEVNYAAGDSVRVIDGPLAGFIGVVSSVEPDKNKVNVTVSMFGRETPVELELDQVETLD | 0.111
16 | HMNVQGFVFDLAEPLDKVPSIEGFPLKLEDPLTLVAAVNKDRSINALFAELSKLNIKIKSMRNE | -0.0601
17 | HMRRVEDVRTALEHFAAARNTTPMAMTLDQRREAMRELAASGLLNLRRALSEVAQTLGVARSTVYTYLP | -1.39
18 | HMRMLLKELLIQYEVKNDKSHVEVAKEVGVSLSTYYRWLNGESLHLKKRTIDRLSEVLHYDINQVVEES | -2.52
19 | HMRMQRYYLTDMSEKGREALPGVLDEMGYAGRYTMSDNSIAINSNMIVLSKAIKRAEDIAHNE | -0.089
20 | HMPLLKIGAQGHDVRVVQEALQRAGYAIEGVTGIFDEATREAVLAFQRDQQLTESGTVDRATWHALRR | -0.0683
21 | HMGTTLTKIPGIGENRARLLLRHFGSLRAVREADADALAAVKGMTRPAAEAIVRYFEQQDAEGRRD | 0.282
22 | HMQPASPELNNQEKKVLQALPENEVIHIDELSDKIQIPVGELLTVLLSLEMKETVIQEPGKFFRRR | -1.29
23 | HMSMPDERMLTSWMMARVKAAGKTMTRDAWNEFFERSNDSMDHMDMEMEKLLSYVYDKDGITLEDVEA | -0.223
24 | HMILYDDEYKGPRYRYGLHSRPLSPGAVPKGFIIHSDRPHPDFRHGTLDYPVKLPDDRAANFELIFIGEFD | -1.59
25 | HMEGTVQQDKFDAYKAKFEDAISNDLNTSMAITIIYDLLKDDMNDKTKLALINDFDKVLSLNLTTA | -0.219
26 | HMTVSADIIQKIIKTSTTDENIITIDSISNSISKLALSKITAEDIIEILEASSLVLRNSNGSWTVL | -1.7

Row | Sequence | soluble fraction (log2)
27 | HMPYSKIALQISHLLKSHGVPLSNKQIYEKLINDFQLSINYSNLTNNILPRMNSDSSINVEKVTRGYWQY | -0.931
28 | HMKTFSFEILADTVKKQRKAKGMTQAELSEATGINRSMIGQMENMTFKPSIEQLEALSQALDFNVIDLYTE | -0.325
29 | HMKDASEFLGAKGKTITPLRPTGAAVINGEKVDVLAEGEFIPKNAEIVVIKVEGSKIIVRNANN | -0.061
30 | HMNLSAREWTSADGSRTFQGELTGFQDGKVKVRRSDGKSLVFAIELLSESDQQFIKTNQLVIAKKDED | 0.0766
31 | HMELTVPDFTNMSLEDAINLAEKRDVRLEVTDSVFVKRLGRGFIYSQNPVAGSKVKKGRRILITINAIN | -3.63
32 | HMESSKLQASIINYLERRPTQKFTAEELFKGLSLEKASVFNELVKELTSLERSHKVEITADDKFKIARPQ | -0.331
33 | HMLLSHTAQREGELLTFLRGELALSSGLVKRLKWQNAFFLDGAPVHTNARVKPGQEITVRIEE | -1.59
34 | HMSMLGTEQRVLVLGPARKGEGFLMARTDNNRIVNFEGPLSLVDTMVRVKVTDVYPHSLGGQLL | -1.51
35 | HMVILPGEKMVVKIVQPGKEKGQGVGYLADGTMIVVDSGDKMIGQDVPTEITRVFQTVAGKMLFAVPVD | -0.73
36 | HMKNLKLVSNTDGIRIDSWLADEFEDYSRSYLRKLIDQDLVYVNGNKIKANYKLKKGDEISISIPEPE | -0.151
37 | HMHPDALTEREREVLSLLADGLSNREIAARLVLALGTVKWYISVIYSKLGVTRRTQAIARARELHLV | -0.0116
38 | HMNADAIIGRMGKVTEPITPDGYGRVEIDGDSWKATAVGGVAIAEGTRVSVVSLDSIIITVKTV | -1.44
39 | HMEGNLVEIFEDAFGRTMSTMDIEYINQFKRTGYDDEMIVSALREAVKSNALSFRYIERVLENWAHS | -0.881
40 | HMHREITGSLAERNGRYTAILNLYDEDGKRRQKSIALGIPVKGNKRKAQAQLEELKRAYSLGLPQ | -0.346
41 | HMGLSNYEFNSISQTVKEKLEQGPLTLKALVDETAHLFAEDKVVSVVQWLIDQRDLAYDDHGLLQWKG | -0.792
42 | HMTDIDATSIERAVAKRRHFFLSNIQDLTMKMARRLIEKDLGLAPKHLDAAPFKTRITELVDAVIALGD | -0.393
43 | HMVPHQPRVWTNTAGKTITAAFVRFNAAGRKVSLKLEKGRQVELPLASLSGNDVDWIKEHVPEAMSNQE | -1.06
44 | HMQSTVSTHQKTLALDTAQSGIPVFPVSSTHKRPLTDHGYKDATADADAVRKIWQQFPSAFV | 0.28
45 | HMLKEGQYSPNHFHWHKMEDIINRGGGTLLIRVYNSLPDEEIDRESDVTVHMDGVTRTVPAGTQLRLE | -0.124
46 | HMVFRFELQPSSATPLYRQIVEQVTRAVAAGVLRDGEELPSVRAVAQEYVINPMTVSKAYSLLEAQSI | -0.366
47 | HMNFEIEVTENGKRIDSYLAEELDLSRSKVQKLIKQELVTVNGKVVSNNYNVKLGDTILVNDD | 0.113
48 | HMLSKEERRSQLLDLGVRLLSTRSLDELSIDLLAEEAGISRGLLYHYFGNKHDFHEAVVRRAADDLI | -2.15
49 | HMRTVAERYGLTAGQWRVLELLTQGKTNRQIAEMLDVTEGTVKIHVSAIFKAMKVTNRTQALLLAKKH | -1.28
50 | HMNINTEMEKVSYSLGVNIASSLKQQGWELDAKSLSDAFVDVFNGNKLLIDEKEASSILQNYQQKIANK | 0.0321
51 | HMRRFEFSDGSSNKFWQITRDGTSLTVTFGKIGTAGQTQLKELATEAAAIAEHDKLVKEKTKKGYAEVG | -0.174
52 | HMVDQKLIQASAEHSGIRIDRFLSEQLPEHSRSYIQKLIKDGQVSIGGKAVKSNYKIAGTEEISLLIPDQ | -0.0516

Row | Sequence | soluble fraction (log2)
53 | HMSEEVDVPDLVGMQLEEAEKSLEPLGLKLKIAKEIPNSEFEKGKIVDQKTKAGEKVKTGYTIEVTVSSG | -0.126
54 | HMQMGLNEAYRVLHVSPDAPWREVQSAYKERMAKSHPDKVSHLGEELQEKAKELTVEINKAYNTIKRYKK | 0.47
55 | HMDYNLTKNQKIVFNLLQNSGEPLKAYTILESLKREGLKSPLQVYRALDKLVELGIIHKIESQNSFI | -0.334
56 | HMADRVFGHIPGVAVGSIFPDRRSLSQTGVHRPTQAGISGNKTDGADSIVVSGGYRDDRDYGDLIIYTG | -0.107
57 | HMGRRRAAPQEPLRQFPASPVTGQPIKLLLGQYGPYVTDGTTNASLPKGSSPDELTFEQATQLLAERALRG | 0.0333
58 | HMSDILALMPGTIKQILVAPGDSVKRGQTVIIMESMKMELTIAAHRDGVVKRIPVEQGGQVEKGMRLLELE | -1.86
59 | HMNKMHKLPSVSEILNKVRLQKIHNESFIKFKIKEEIDRYRKLAKKDQLFLSRDEITYEIIEKLLNFSMPS | -3.97
60 | HMSGEPVKSTLPGNVFKILVAVGDSVKKGQRMFVLEAMKMEIDVNAPKDGLVTSIEVQQGQTVANGQILAK | -0.0981
61 | HMRPPLEWGTHGEITTRTVASGYVRASARVRLWDGELQRMTATASTASDARASLQHRIAERLRFSEL | -1.45
62 | HMGTDIGADKAAQTALADAGLSSSQVTGLRTKQDWDDGQLRYEVEFRAGGVEYDYELAADGTILKADRDT | 0.17
63 | HMKKPRKTSRKSIENAAIFYLQRFSSSIENLRRVLMRRVYRSAQYHNTKPEEDAKIVDSIIYRLIETGVL | -0.322
64 | HMDVRLAKVYMLPANPYLRFIEFDDGTHGKFRAKPGKFGLGSVVKVKREDGDMYTLEGNYDGKDRL | -0.763
65 | HMDYKAELDNIIRDHLDMEGPLLPVLHAVMARFSYIPKDAIPIIARKLNLSSAEVSGVISFYHDFKKEK | -1.81
66 | HMAATGPLTPREAEIARLAAGHLSNRQIAEQLVVSERTVENHLYRIFIKLAVTGRDDLAAALAATEQ | -2.55
67 | HMGDLDLVTFGQRLRHLRRSRNMTLSELGERVGRAPSQLSLLENGKREPKLSLLTALAKALDVSVEEL | -1.05
68 | HMLSAEAAAARTAISTLSEDQQRVLGLSIQRGLVHEQIARATGLPLGTVKTHIRRGLIKVREALEAQAAG | 0.00212
69 | HMKSNIIPLSLKKPQRLDIFLTNYFVDLSRTQIKKMITDGNIKVNDLIAKPSLKLIGDEIIFYTLPK | -1.46
70 | HMRASVTYVVQVNGKLRGKLEVAPDIDPEELKKLALEVENVKHSLQGWTVKKVIVIPGKMVSIAAGK | -1.78
71 | HMVADEGELLAIAREVVAANPKVFEDWKAGKQSAAQWFVGQIMKRTRGRANPQLALKLVTQALEEHAR | 0.0384
72 | HMTVTISPGYEGRLLRSYLKNTLSLSTSALARLKTREDGITVNGVRVTVRYVLHAGDLLQLAVD | -0.579
73 | HMEFQVKVIVSSLNIRSGPGTSYDTLGTVTKGDIFTIVETNSDSTWGKMQSGGWISIKDAYVKK | -3.92
74 | HMASGLITEEQAKSKALAHAGLSASQVNFIWVKQDWEDGRRVYEVEFYTDDYQEYDYEIDARTGEILSFDY | -1.84
75 | HMKLRYRTQEELLGVAREYRRRGLPLSVIVIDFYHWTKFGDWKFDPAYWPDPVGMVRELRDMGVEAAV | -0.17
76 | HMRRMAYLVGQRGLAMGDFISGTGQVRIGDTVWRAEAVEGELVRTGDTVVVEGAKMTTAIVRRVM | -1.81

From the domain aggregation screens of Martell et al. (2025)
